Results on two molecules are retold here after US20080206220A1, “2031 Oxidoreductase” (F2G LTD, priority 2004, published 2008).

The test system of one data set is O=C1C=CCCC1. Kind of data set: purified protein, by the assay type. As to conditions: other: recombinant 2031 OR, 100 mM potassium phosphate buffer pH7.0; pH 7.0.
Another data set has as its system Recombinant 2031 OR. Put plainly: Oxidoreductase assay: NADPH oxidation monitored at 340 nm, 96-well. It is filed as biochemical, Aspergillus fumigatus. As to conditions: 500 μM substrate, 1 μg/200 μL 2031 OR, 120 μM NADPH. The protocol: The assay for 2031 OR is based on methods described by Abramovitz & Massey (1976, J. Biol. Chem. 251: 5321-5326) and Stott et al. (1993, J. Biol. Chem. 268: 6097-6106) and is based upon the ability of this enzyme to oxidise the pyridine nucleotides NADH and/or NADPH. […] Conversion of NAD(P)H to NAD(P)^+ can therefore be monitored spectrophotometrically at a wavelength of 340 nm. A similar assay can be employed for all oxidoreductases that use NADH or NADPH as a cofactor.
Assays were carried out in 96-well plates. To each well was added the following; Recombinant 2031 OR (10-1000 ng); 40 μl of 125-2500 μM NADPH; 1 μL 100 mM cyclohexeneone or other substrate, and the volume made up to 200 μL with 0.1 M potassium phosphate pH 7.0. Samples were incubated at room temperature and absorbance measurements were taken at 340 nm every 30 seconds for 10 min. The change in absorbance was expressed as nmoles NADPH oxidised, using the molar extinction coefficient of NADPH and NADH at 340 nm of 6270 (i.e., a 1M solution has an optical density of 6270 at this wavelength).
This is illustrated in FIG. 5. Final concentrations in the assay were as follows: 500 μM substrate, 1 μg/200 μL 2031 OR, 120 μM NADPH.

Procedure for O=C1C=CCCC1: Assay plates: Compounds to be tested were dissolved in 100% DMSO (polypropylene vessels), diluted in water and loaded into 384 square well polystyrene plates (10 μl/well). The final DMSO concentration in all assay wells was 5% v/v.
βNADPH (tetrasodium salt)/2-cyclohexen-1-one reagent; Solutions of NADPH (1.2917 mM in 100 mM potassium phosphate buffer, pH7.0) and 2-cyclohexen-1-one (10 mM in 100 mM potassium phosphate buffer, pH7.0) were prepared on the day of the assay and combined in a ratio of 1 part of 2-cyclohexen-1-one solution to 9 parts NADPH solution. Final assay well concentrations for NADPH and 2-cyclohexen-1-one were 465 μM and 400 μM respectively.
For the iscreen, protein was typically diluted to 5 to 11.25 μg/ml in 100 mM potassium phosphate buffer, pH7.0.
Stop reagent: 0.4 M NaOH in water.
To give an increased signal, the screen was carried out using 2-cyclohexen-1-one at 4 times Km. […]
Assays were carried out using Tecan Freedom, Tecan TeMo and PerkinElmer Minitrak robots together with a ThermoLabsystems multidrop 384 and a Tecan Safire automated plate reader. […] Plates were read at 340 nm on a Tecan Safire plate reader and data processed using ‘in-house’ created Excel spreadsheets to convert raw data into percent inhibition data. […]

The term Km denotes the concentration of substrate that gives half-maximal velocity. With “2031 OR enzyme (Aspergillus fumigatus Af293)”, the Michaelis constant (Km) in the data set on O=C1C=CCCC1 worked out at 100 µM.

Consider `O=C1C=CCCC1` [2-cyclohexen-1-one], for which, in the data set with Recombinant 2031 OR, the “Reduction of substrates by recombinant 2031 OR (substrate comparison, FIG. 5)” value is “better substrate than menadione, duroquinone or N-ethylmaleimide”.
